The source of these data is patent US20140154255A1 (AbbVie / Abbott, published 2014).

In assay [1] the target is T1, VEGF (R&D systems, Minneapolis, Minn.) (UniProt P15692-4 27-191, limits assumed). Briefly: BIAcore SPR. On the procedure: (§1) RL was kept low to minimize avidity due to the dimeric nature of VEGF. No capture of the antibody was made on the reference surface to serve as a negative control. Subsequently, VEGF was injected to all flow cells at a flow rate of 50 μL/min for two minutes to monitor association followed by a 25-minute flow of HBS-P running buffer (10 mM HEPES, 150 mM sodium chloride, 0.005% P-20, pH 7.4) to monitor the dissociation phase. At each cycle, VEGF, in 6 different concentrations of VEGF ranging between 0 nM and 512 nM and at four-fold increments, was injected over the surface. […] Binding data were fit to the 1:1 Langmuir model to extract binding constants from the BIAevaluate software. Double referencing was applied in each analysis to eliminate background responses from the reference surface and buffer only control. All the binding kinetics data were analyzed at least three separate determinations.

Assay [2] has as its target T2, human VEGF-A residues 27-191 of Accession #AAV38412 (human, UniProt P15692 27-191).
T2 construct: range 27-191
Briefly: BIAcore SPR. On the procedure: (§2) The binding kinetics and affinity of the antibodies for VEGF (human VEGF-A residues 27-191 of Accession #AAV38412) was determined by using a BIAcore T200 surface plasmon resonance system (BIAcore, GE Healthcare, Piscataway, N.J.). Coupling running buffer was HBS-EP+ running buffer (10 mM HEPES, 150 mM sodium chloride, 3 mM EDTA 0.05% P-20, pH 7.4); assay running buffer was HBS-EP+ with 300 mM sodium chloride and 0.1 mg/mL BSA (Sigma A7906). Polyclonal goat anti-human Fc (Thermo Scientific prod#31125) was first immobilized to the biosensor surface in 10 mM sodium acetate, pH 4.5 using standard BIAcore amine coupling reagents (N-ethyl-N′-dimethylamino-propylcarbodiimide, EDC; N-hydroxysuccinimide, NHS; and ethanolamine HCl, pH 8.5). For binding kinetics assay a series of cycles were performed, each cycle consisted of 1) mAb capture, 2) Ag or buffer injection, 3) dissociation phase and 4) regeneration. Briefly, anti-VEGF antibodies were captured on parallel surfaces at a low flow rate of 10 μL/min. Capture levels were kept low to minimize avidity due to the dimeric nature of VEGF. No capture of the antibody was made on the reference surface to serve for primary referencing and as a negative control. Subsequently, VEGF or buffer only was injected to all flow cells at a flow rate of 80 μL/min for three minutes to monitor association followed by a 20-minute flow of assay rinning buffer at a flow rate of 80 μL/min to monitor dissociation. […] At the end of each cycle the surface was regenerated with 10 mM glycine, pH 1.5 at a flow rate of 60 μL/min in pulses of 60 and 10 sec. Binding data were fit to the 1:1 Langmuir model with mass transport term included using Biacore T200 Evaluation Software to determine the binding constants.
For orientation: In SPR one partner is held on a chip, and binding of the other changes the refractive index at the surface.

Assay [3] has as its target T1, VEGF (R&D systems, Minneapolis, Minn.). Briefly: BIAcore SPR, WT/mutant. On the procedure:
as §1

The target is the same in assay [4]. Briefly: BIAcore SPR, mutant/WT. On the procedure: as §1
For assay [5], the target named is T2, human VEGF-A residues 27-191 of …. Briefly: BIAcore SPR, KD WT/KD mutant. The procedure:
as §2

Assay [6] addresses T1, VEGF (R&D systems, Minneapolis, Minn.). Briefly: BIAcore SPR, improvement over WT. The procedure: as §1
Assay [7] has as its target T3, unlabeled human VEGF (ELISA coat) (human, UniProt P15692-4 27-191, limits assumed). Briefly: ELISA 1 hr, EC50 WT/EC50 mutant. The procedure:
(§3) To detect identified variants binding to antigen, ELISA plates (Nunc-Immuno MaxiSorp plates, Nalge Nunc, Rochester, N.Y.) were coated overnight at 4° C. with unlabeled human VEGF at 1 μg/mL in 0.2 M sodium carbonate-bicarbonate buffer (pH 9.4, Pierce, Rockford, Ill.). The plates were then blocked with SuperBlock Blocking Buffer (Pierce, Rockford, Ill.) for 30 min and washed with Washing Buffer (PBS containing 0.1% Tween 20). All the washing steps were performed for three times. […] The plates were washed and 100 μL of goat anti-human kappa HRP-conjugated antibody (Southern Biotech, Birmingham, Ala.) diluted at 1:1000 in ELISA buffer was added to each well. After 30 minutes of incubation, plates were washed and bound antibodies were detected by addition of TMB 1 Component HRP Microwell substrate (BioFx #TMBW-1000-01). The reaction was terminated by addition of 100 μL/well of 650 nM Stop Reagent for TMB Microwell substrate and the absorbance was measured at 650 nm using a VERSAmax microplate reader (Molecular Devices, Sunnyvale, Calif.). Data were fitted using nonlinear regression with the software […]

Assay [8] has as its target T3, unlabeled human VEGF (ELISA coat). Briefly: ELISA overnight, EC50 WT/EC50 mutant. The procedure: as §3
On the technique in general: An ELISA detects its analyte on a solid surface through an enzyme-linked reagent.

T1 sequence (P15692 other isoform, or with tags, fused parts or gaps limits assumed): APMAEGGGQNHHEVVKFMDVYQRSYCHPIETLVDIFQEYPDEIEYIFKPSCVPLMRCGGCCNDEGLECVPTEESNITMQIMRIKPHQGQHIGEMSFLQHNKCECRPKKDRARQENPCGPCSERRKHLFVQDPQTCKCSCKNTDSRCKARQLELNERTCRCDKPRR
T2 sequence (P15692 other isoform, or with tags, fused parts or gaps limits assumed): as above
T3 sequence (P15692 other isoform, or with tags, fused parts or gaps limits assumed): as above

B1: 91 (antibody, human IgG1, V domains shown)
VH: EVQLVESGGGLVQPGGSLRLSCAASGYTFTFYGMNWVRQAPGKGLEWVGWINTYTGEPTYAADFKRRFTFSLDTSKSTAYLQMNSLRAEDTAVYYCAKYPHYYGSSHWYFDVWGQGTLVTVSS
VL: DIQMTQSPSSLSASVGDRVTITCSASQDISNYLNWYQQKPGKAPKVLIYFTSSLHSGVPSRFSGSGSGTDFTLTISSLQPEDFATYYCQQYSTVPWTFGQGTKVEIKR
For orientation: Kd means a measure of binding affinity in units of concentration. High values mean weaker binding, low ones tighter binding. What is called koff is the rate constant with which the complex falls apart. A lower koff goes with slow dissociation. As a reminder, the kon is the second-order rate constant of association. Low readings indicate slow association, high ones fast association. For the molecule B1, in assay [1], binding was characterised by a dissociation constant (Kd) of 0.575 nM, the koff amounted to 0.000121 s⁻¹ and the kon worked out at 211000 M⁻¹ s⁻¹. Further, in assay [2], the Kd is 0.091 nM, the koff was found to be 2.48e-05 s⁻¹ and the kon was 272000 M⁻¹ s⁻¹. Moreover, the Δkoff in assay [3] worked out at 2.9 fold. Also, in assay [4], the Δkon is 1.2 fold. Moreover, the affinity improvement in assay [5] stood at 4.7 fold. For the same molecule, in assay [6], the ΔKD is 3.4 fold. In addition, the “ELISA 1hr binding” value in assay [7] was determined as 0.7 fold. The molecule also had an ELISA o/n binding in assay [8] of 0.3 fold.

B2: 95 (antibody, human IgG1, V domains shown)
VH: EVQLVESGGGLVQPGGSLRLSCAASGYTFTNYGMNWVRQAPGKGLEWVGWINTYTGEPTYAADFKRRFTFSLDTSKSTAYLQMNSLRAEDTAVYYCAKYPDYYGSSHWYFDVWGQGTLVTVSS
VL: DIQMTQSPSSLSASVGDRVTITCSASQDISNYLNWYQQKPGKAPKVLIYFTSSLHSGVPSRFSGSGSGTDFTLTISSLQPEDFATYYCQQYSTVPWTFGQGTKVEIKR
In assay [1], B2 registered a Kd of 1.54 nM, a koff of 0.000396 s⁻¹ and a kon of 262000 M⁻¹ s⁻¹. In assay [2], binding was put at a Kd of 1.3 nM, the koff was determined as 0.000351 s⁻¹ and the kon is 270000 M⁻¹ s⁻¹. The molecule further yielded a Δkoff in assay [3] of 0.9 fold. Further, in assay [4], the Δkon is 1.5 fold. Moreover, in assay [5], the affinity improvement was 0.4 fold. In assay [6], this molecule registered a ΔKD of 1.3 fold. Also, in assay [7], the “ELISA 1hr binding” value was found to be 4.5 fold. Also, the ELISA o/n binding in assay [8] amounted to 3 fold.

B3: 93 (antibody, human IgG1, V domains shown)
VH: EVQLVESGGGLVQPGGSLRLSCAASGYTFTNYGMNWVRQAPGKGLEWVGWINTYTGEPTYAADFKRRFTFSLDTSKSTAYLQMNSLRAEDTAVYYCAKYPEYYGSSHWYFDVWGQGTLVTVSS
VL: DIQMTQSPSSLSASVGDRVTITCSASQDISNYLNWYQQKPGKAPKVLIYFTSSLHSGVPSRFSGSGSGTDFTLTISSLQPEDFATYYCQQYSTVPWTFGQGTKVEIKR
In assay [1], B3 displayed a Kd of 0.761 nM, a koff of 0.000225 s⁻¹ and a kon of 292000 M⁻¹ s⁻¹. In assay [2], the affinity, expressed as Kd, was 1.59 nM; the koff came out at 0.000358 s⁻¹; the kon came out at 225000 M⁻¹ s⁻¹. The Δkoff in assay [3] came out at 1.6 fold. The molecule further had a Δkon in assay [4] of 1.6 fold. Also, in assay [5], the affinity improvement is 0.3 fold. Moreover, the ΔKD in assay [6] is 2.6 fold. In addition, the “ELISA 1hr binding” value in assay [7] was determined as 4.3 fold. The molecule further registered an ELISA o/n binding in assay [8] of 3.6 fold.

B4: 92 (antibody, human IgG1, V domains shown)
VH: EVQLVESGGGLVQPGGSLRLSCAASGYTFTNYGMNWVRQAPGKGLEWVGWINTYTGEPTYAADFKRRFTFSLDTSKSTAYLQMNSLRAEDTAVYYCAKYPPYYGSSHWYFDVWGQGTLVTVSS
VL: DIQMTQSPSSLSASVGDRVTITCSASQDISNYLNWYQQKPGKAPKVLIYFTSSLHSGVPSRFSGSGSGTDFTLTISSLQPEDFATYYCQQYSTVPWTFGQGTKVEIKR
In the case of B4, in assay [1], the Kd stood at 0.708 nM, the off-rate (koff) came to 0.000256 s⁻¹ and the association rate constant (kon) came out at 367000 M⁻¹ s⁻¹. In assay [2], binding was characterised by a dissociation constant (Kd) of 0.522 nM, the off-rate constant (koff) came out at 0.00021 s⁻¹ and the kon stood at 401000 M⁻¹ s⁻¹. The Δkoff in assay [3] amounted to 1.4 fold. In addition, the Δkon in assay [4] came to 2 fold. In assay [5], this molecule yielded an affinity improvement of 0.8 fold. The molecule further showed a ΔKD in assay [6] of 2.8 fold. Besides, the “ELISA 1hr binding” value in assay [7] was found to be 2.7 fold. In assay [8], the ELISA o/n binding came out at 1 fold.
